# Values quoted from earlier work as cited in paper PMC5689459.
# Target: delta-opioid receptor (Homo sapiens) (UniProt P41143)
# Test: radioligand
# Chain of Morphiceptin (P02666 whole entry, looked up): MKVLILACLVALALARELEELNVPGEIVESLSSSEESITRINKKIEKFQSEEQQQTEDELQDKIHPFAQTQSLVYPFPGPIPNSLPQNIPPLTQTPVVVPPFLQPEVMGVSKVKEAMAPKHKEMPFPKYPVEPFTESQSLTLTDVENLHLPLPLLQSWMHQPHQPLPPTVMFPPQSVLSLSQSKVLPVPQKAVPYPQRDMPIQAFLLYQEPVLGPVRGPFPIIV
substance,measurement,value
Morphiceptin (from UniProt P02666),Ki,> 10 µM
